Experimental data taken from patent US8460669B2, “Compositions and methods for identifying response targets and treating flavivirus infection responses” (Academia Sinica, priority 2005, dated 2013).
Where a chain is given by its changes, count along the chain named. Blank lines part the entries; values can stand above or below the molecule they belong to.

Biological target: T1, DVLR1/CLEC5A (Homo sapiens, UniProt Q9NY25)
T1 construct: endogenous in cells; host or cells: human CD14+ PBMC-derived macrophages (M-CSF, 6 days)
T1 sequence (Q9NY25 1-188): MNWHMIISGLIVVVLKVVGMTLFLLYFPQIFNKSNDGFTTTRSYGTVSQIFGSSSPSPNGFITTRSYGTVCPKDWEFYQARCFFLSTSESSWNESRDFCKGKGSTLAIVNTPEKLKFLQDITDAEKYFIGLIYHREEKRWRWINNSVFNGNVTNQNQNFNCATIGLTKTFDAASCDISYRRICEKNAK
Experiment: DV-induced TNF-α secretion from human macrophages with anti-DVLR1/CLEC5A mAbs
Type: cell-based
Details: for TNF-α release from macrophages after infection with DEN1, DEN2, DEN3 and DEN4: dose-dependent manner, ELISA of culture supernatants
Source text: Monoclonal antibodies against DVLR1/CLEC5A were generated using standard techniques. Briefly, mice were immunized with DVLR-1.Fc fusion protein, and hybridomas were formed by fusing spienocytes from the mice with P3/NSI/1-Ag4-1 [NS-1] myeloma cells (ATCC TIB-18). Among the mAbs generated, clone 9B12, the subclones of 3E12 (clones 3E12A2, 3E12C1, 3E12G9), and clone 8H8F5 suppressed TNF-α release from macrophages after infection with DEN1 (strain 766733A), DEN2 (strain PL046), DEN3 (strain H-87), and DEN4 (strain 866146A) in a dose-dependent manner. […] In accordance with standard nomenclature, each antibody is referred to via the clone number of the hybridoma that secretes it.
According to embodiments illustrated in FIG. 19, DVLR1/CLEC5A is critical for DV-mediated TNF-α, but not IFN-α, secretion. More specifically, FIG. 19a illustrates the dose-dependency of DV and UV-DV induced TNF-α secretion by macrophages measured by ELISA at 6 h and 12 h p.i. FIG. 19b illustrates the kinetics of TNF-α expression after DV infection (m.o.i.=5). FIG. 19c illustrates the effects of DVLR1/CLEC5A and DC-SIGN shRNAs on the secretion of TNF-α, IL-6, MIP1-α, IL-8, IP-10, and IFN-α from DV-infected macrophages (m.o.i.=5). In FIG. 19d, knockdown experiments with receptor specific shRNAs illustrating that DV-induced IFN-α secretion is via the TLR7-MyD88 pathway and TNF-α secretion is via DVLR1/CLEC5A-TLR7-MyD88 pathway. FIG. 19e illustrates antagonistic anti-DVLR1/CLEC5A mAbs inhibiting TNF-α secretion in response to DV serotypes 1-4 is inhibited (see Table 3).
M.R. mAb (anti-mannose receptor mAb; mIgG1) and murine IgM (mIgM) were used as negative controls. In both FIG. 19d and FIG. 19e, macrophages were infected with DV (m.o.i.=5) and harvested at 36 h p.i. for cytokine assays. Data are expressed as mean±s.d. of three independent experiments (using material from at least three different donors). Two-tailed, Student's t-tests were performed. “ND” represents not detected.

[1] = antibody 10 μg/sample, p vs isotype control, m.o.i.=5, 36 h p.i.

- Antagonistic DV1 (suppression of DV-induced TNF-α secretion) [1]: ** (“**” - p < 0.01)
- Antagonistic DV2 (suppression of DV-induced TNF-α secretion) [1]: ** (“**” - p < 0.01)
- Antagonistic DV3 (suppression of DV-induced TNF-α secretion) [1]: ** (“**” - p < 0.01)
- Antagonistic DV4 (suppression of DV-induced TNF-α secretion) [1]: * (“*” - p < 0.05)
- TNF-α release from macrophages after infection with DEN1, DEN2, DEN3 and DEN4: suppressed
B1: 3E12A2: anti-human DVLR1/CLEC5A monoclonal antibody, subclone of 3E12; VH SEQ ID NO: 60, VL SEQ ID NO: 61 (antibody, V domains shown)
VH: QVQLEESGPELVKPGASVKLSCKASGYTFTEYIIHWVKQRSGQGLEWIGWFYPGSGSIKYNEKFKDKATLTADKSSSTVYMELSGLTSEDSAVYFCARHDGYSYFDYWGQGTTLTV
VL: QSPSSLAVSAGEKVTMSCKSSQSLLNSRTRKNYLAWYQQKPGQSPKLLIYWASTRESGVPDRFTGSGSGTDFTLTISSVQAEDLAVYYCKQSYNLYTFGGGTKLEIK

- Antagonistic DV2 (suppression of DV-induced TNF-α secretion) [1]: ** (“**” - p < 0.01)
- Antagonistic DV3 (suppression of DV-induced TNF-α secretion) [1]: ** (“**” - p < 0.01)
- TNF-α release from macrophages after infection with DEN1, DEN2, DEN3 and DEN4: suppressed
B2: 3E12G9: anti-human DVLR1/CLEC5A monoclonal antibody, subclone of 3E12; VH SEQ ID NO: 62, VL SEQ ID NO: 63 (antibody, V domains shown)
VH: B1 VH with E6Q
VL: B1 VL
